According to IntAct's records for PubMed 23454188:

Target: gima7_human GIMAP7 (UniProt Q8NHV1)
Sequence (Q8NHV1 whole entry): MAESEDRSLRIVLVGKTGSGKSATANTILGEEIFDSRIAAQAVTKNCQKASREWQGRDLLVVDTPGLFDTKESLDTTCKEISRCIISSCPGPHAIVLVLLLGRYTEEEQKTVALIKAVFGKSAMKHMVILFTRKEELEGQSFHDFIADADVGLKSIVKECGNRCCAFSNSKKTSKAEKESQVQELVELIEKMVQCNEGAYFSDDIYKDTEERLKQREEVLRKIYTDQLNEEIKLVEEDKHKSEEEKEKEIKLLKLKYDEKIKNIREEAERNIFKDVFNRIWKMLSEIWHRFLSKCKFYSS

Chain of GTPase IMAP family member 2 (Homo sapiens), Q9UG22 S54A (Q9UG22 whole entry S54A): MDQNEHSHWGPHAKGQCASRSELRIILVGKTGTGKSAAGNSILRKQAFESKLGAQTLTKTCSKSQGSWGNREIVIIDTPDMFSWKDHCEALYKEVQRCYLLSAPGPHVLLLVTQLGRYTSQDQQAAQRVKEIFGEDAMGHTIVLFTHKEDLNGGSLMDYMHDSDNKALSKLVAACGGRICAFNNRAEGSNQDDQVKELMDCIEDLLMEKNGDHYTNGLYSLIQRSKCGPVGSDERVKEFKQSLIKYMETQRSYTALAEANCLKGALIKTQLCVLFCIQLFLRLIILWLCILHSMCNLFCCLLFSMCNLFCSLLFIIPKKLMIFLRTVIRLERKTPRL
Chain of GTPase IMAP family member 2 (Homo sapiens), Q9UG22 R117D (Q9UG22 whole entry R117D): as the sequence (Q9UG22 whole entry S54A) above, with A54S, R117D counted along it

Substance	effect of a mutation on the interaction
GTPase IMAP family member 2 (Homo sapiens), Q9UG22 R117D	disrupting interaction strength
GTPase IMAP family member 2 (Homo sapiens), Q9UG22 S54A	disrupting interaction strength
